Consider 3 molecules from patent US20230416378A1 (Boehringer Ingelheim, published 2023).

Positions count from the first letter of the chain named.

Experiment [1] has as its target T1, human Nrp1 (soluble analyte in SPR and BLI) (human, UniProt O14786 22-856, limits assumed).
T1 construct: also called hNrp1; Human Nrp1A
In words: SPR, antibody captured on Protein A/G (GLM sensorchip), human Nrp1A as analyte 0-100 nM, 1:1 Langmuir fit. The method, then: The running buffer for this experiment and all dilutions (except where stated) were done in PBS-T-EDTA with 0.01% Tween20 [100 ul of 100% Tween20 was added to 2L of PBS-T-EDTA to make final Tween 20 concentration of 0.01%]. The GLM sensorchip was normalized and pre-conditioned as per the manufacturer's recommendations. The sensorchip was activated with equal mixture of EDC/s-NHS in the horizontal direction for 300 sec at a flow rate of 30 μl/min and immobilized with Recombinant Protein NG (60 μg/ml in 10 mM acetate pH 4.5) in the horizontal direction for 300 sec at a flowrate of 30 μl/min. The sensorchip was deactivated with 1M ethanolamine HCl in the horizontal direction for 300 sec at a flowrate of 30 μl/min. The sensorchip was stabilized with 18 sec of 0.85% phosphoric acid at a flowrate of 100 μl/min 3 times horizontally and 3 times vertically.
Human Nrp1A was prepared in PBS-T-EDTA buffer at concentrations of 100, 50, 25, 12.5, 6.25, and 0 nM. A PBS-T-EDTA buffer injection was used as a double reference for the kinetic data analysis. Each of the human Nrp1A solutions and PBS-T-EDTA buffer were injected simultaneously over the 6 horizontal channels for 5 min at a flow rate of 40 μL/min followed by 30 min dissociation phase. The surfaces were regenerated by an 18 sec injection of 0.85% Phosphoric acid at a flow rate of 100 μL/min followed by an injection of sec PBS-T-EDTA at a flow rate of 100 μL/min. The interspot (interactions with sensor surface) and blank (PBS-T-EDTA with 0.01% Tween20 or 0 nM analyte) were subtracted from the raw data.
(Surface plasmon resonance follows binding to a sensor surface in real time, without labels.)

In experiment [2] the target is T2, Neuropilin-1 (Nrp1) endogenously expressed on human endothelial cells (HRMEC, HUVEC) (human, UniProt O14786 22-923). The experiment in a line: cell-based or functional assay.
In another experiment the target is T3, rat Nrp1 (rat, UniProt Q9QWJ9 22-855, limits assumed).
T3 construct: also called rat Nrp1A
In words: SPR, antibody captured on Protein A/G (GLM sensorchip), Nrp1 as analyte 0-100 nM, 1:1 Langmuir fit. On the procedure:
(§1) The running buffer for this experiment and all dilutions (except where stated) were done in PBS-T-EDTA with 0.01% Tween20 [100 ul of 100% Tween20 was added to 2L of PBS-T-EDTA to make final Tween 20 concentration of 0.01%]. The GLM sensorchip was normalized and pre-conditioned as per the manufacturer's recommendations. […] The sensorchip was deactivated with 1M ethanolamine HCl in the horizontal direction for 300 sec at a flowrate of 30 μl/min. The sensorchip was stabilized with 18 sec of 0.85% phosphoric acid at a flowrate of 100 μl/min 3 times horizontally and 3 times vertically.
(§2) The baseline was stabilized by injecting PBS-T-EDTA for 60 sec at a flowrate of 100 μl/min horizontally with dissociation of 120 sec. The analyte was injected horizontally over the captured antibody for 300 sec at a flowrate of 30 μl/min and a dissociation for 1800 sec. The concentrations of the analytes were 0 nM, 6.25 nM, 12.5 nM, 25 nM, 50 nM, and 100 nM. The surface was regenerated by injecting 0.85% phosphoric acid for 18 sec at a flowrate of 100 μl/min one time horizontally and one time vertically. PBS-T-EDTA was injected for 60 sec at a flowrate of 100 μl/min one time vertically and one time horizontally.
(§3) The interspot (interactions with sensor surface) and blank (PBS-T-EDTA with 0.01% Tween20 or 0 nM analyte) were subtracted from the raw data.

A further experiment concerns the target T4, cyno Nrp1 (cyno, UniProt A0A2K5V5E7 24-858).
T4 construct: also called cyno-Nrp1A
The experiment is described as above. The method, then:
as §1, §2, §3

Experiment [3] addresses T1, human Nrp1 (soluble analyte in SPR and …). The description is as above. On the procedure: as §1, §2, §3
The next experiment addresses T5, gerbil Nrp1 (gerbil).
T5 construct: also called gerbil Nrp1A
Described as above. The method, then:
as §1, §2, §3

The target of a further experiment is T6, mouse Nrp1 (mouse, UniProt P97333 22-856, limits assumed).
T6 construct: also called mouse Nrp1A
The experiment is described as above. The method, then: as §1, §2, §3

Experiment [4] has as its target T2, Neuropilin-1 (Nrp1) endogenously …. In words: cell-based or functional assay. This is another data set of the same source.

T1 sequence (O14786 22-856 V179A limits assumed): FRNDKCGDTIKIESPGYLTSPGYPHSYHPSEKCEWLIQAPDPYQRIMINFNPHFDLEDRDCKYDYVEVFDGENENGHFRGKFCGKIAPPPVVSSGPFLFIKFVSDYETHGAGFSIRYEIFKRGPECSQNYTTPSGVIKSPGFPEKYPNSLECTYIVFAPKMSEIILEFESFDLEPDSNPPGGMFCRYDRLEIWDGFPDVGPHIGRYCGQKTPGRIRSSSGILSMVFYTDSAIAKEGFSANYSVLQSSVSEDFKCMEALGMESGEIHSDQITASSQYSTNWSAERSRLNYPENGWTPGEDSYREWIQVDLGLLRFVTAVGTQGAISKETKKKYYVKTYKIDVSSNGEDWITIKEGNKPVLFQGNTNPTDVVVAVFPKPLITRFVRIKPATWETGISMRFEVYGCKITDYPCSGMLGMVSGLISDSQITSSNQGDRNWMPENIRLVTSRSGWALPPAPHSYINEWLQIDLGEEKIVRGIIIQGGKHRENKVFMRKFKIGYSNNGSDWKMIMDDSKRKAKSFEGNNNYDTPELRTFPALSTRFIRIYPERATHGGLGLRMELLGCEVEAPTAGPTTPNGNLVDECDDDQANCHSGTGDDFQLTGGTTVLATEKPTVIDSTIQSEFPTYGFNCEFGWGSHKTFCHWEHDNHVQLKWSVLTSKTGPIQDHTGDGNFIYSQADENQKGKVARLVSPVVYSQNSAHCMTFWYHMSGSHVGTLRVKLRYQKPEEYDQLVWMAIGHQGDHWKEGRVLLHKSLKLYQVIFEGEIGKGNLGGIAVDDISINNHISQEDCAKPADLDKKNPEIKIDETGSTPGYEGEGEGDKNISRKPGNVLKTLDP
T2 sequence (O14786 22-923 V179A limits assumed): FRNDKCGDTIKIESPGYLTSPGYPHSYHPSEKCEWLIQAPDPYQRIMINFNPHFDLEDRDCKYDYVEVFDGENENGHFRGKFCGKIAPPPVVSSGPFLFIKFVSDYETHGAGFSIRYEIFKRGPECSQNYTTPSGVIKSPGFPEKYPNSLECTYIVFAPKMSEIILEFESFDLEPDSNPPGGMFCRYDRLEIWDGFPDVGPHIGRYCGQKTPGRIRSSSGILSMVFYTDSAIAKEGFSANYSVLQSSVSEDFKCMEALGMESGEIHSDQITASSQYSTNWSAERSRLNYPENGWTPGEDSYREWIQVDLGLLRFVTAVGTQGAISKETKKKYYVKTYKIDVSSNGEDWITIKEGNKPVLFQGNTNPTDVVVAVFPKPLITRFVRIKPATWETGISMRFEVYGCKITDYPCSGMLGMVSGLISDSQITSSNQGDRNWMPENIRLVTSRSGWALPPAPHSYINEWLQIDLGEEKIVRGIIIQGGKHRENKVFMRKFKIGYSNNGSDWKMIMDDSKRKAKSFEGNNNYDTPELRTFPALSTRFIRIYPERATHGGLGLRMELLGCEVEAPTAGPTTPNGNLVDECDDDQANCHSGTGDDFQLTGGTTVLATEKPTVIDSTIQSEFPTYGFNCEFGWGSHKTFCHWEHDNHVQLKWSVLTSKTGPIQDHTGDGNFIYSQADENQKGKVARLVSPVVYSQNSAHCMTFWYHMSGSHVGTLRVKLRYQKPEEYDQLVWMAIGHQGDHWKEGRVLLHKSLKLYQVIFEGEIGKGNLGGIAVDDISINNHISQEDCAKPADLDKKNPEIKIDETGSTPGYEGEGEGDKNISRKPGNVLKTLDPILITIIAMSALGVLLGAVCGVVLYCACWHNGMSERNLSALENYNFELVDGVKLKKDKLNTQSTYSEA
T3 sequence (Q9QWJ9 22-855 limits assumed): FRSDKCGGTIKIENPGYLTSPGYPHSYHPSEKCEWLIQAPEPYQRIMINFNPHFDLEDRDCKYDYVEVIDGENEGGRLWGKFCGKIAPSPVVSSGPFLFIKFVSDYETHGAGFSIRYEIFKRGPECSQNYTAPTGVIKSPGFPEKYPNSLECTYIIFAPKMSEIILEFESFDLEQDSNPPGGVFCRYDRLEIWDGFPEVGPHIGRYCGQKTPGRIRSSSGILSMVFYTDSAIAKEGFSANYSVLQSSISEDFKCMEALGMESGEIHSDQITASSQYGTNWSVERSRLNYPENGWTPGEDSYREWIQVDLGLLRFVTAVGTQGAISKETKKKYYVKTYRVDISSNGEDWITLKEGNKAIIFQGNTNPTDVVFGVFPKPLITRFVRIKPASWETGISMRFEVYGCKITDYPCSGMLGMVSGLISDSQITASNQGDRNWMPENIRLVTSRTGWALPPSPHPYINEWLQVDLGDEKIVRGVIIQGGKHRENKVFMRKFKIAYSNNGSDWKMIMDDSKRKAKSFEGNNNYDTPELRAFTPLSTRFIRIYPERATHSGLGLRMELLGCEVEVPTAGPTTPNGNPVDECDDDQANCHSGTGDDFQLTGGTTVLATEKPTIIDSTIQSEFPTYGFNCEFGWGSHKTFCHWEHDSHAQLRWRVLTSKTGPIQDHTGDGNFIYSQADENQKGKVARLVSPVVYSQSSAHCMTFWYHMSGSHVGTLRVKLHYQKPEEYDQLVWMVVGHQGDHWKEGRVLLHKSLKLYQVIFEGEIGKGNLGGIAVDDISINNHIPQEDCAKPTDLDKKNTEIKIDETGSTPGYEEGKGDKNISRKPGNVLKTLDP
T6 sequence (P97333 22-856 limits assumed): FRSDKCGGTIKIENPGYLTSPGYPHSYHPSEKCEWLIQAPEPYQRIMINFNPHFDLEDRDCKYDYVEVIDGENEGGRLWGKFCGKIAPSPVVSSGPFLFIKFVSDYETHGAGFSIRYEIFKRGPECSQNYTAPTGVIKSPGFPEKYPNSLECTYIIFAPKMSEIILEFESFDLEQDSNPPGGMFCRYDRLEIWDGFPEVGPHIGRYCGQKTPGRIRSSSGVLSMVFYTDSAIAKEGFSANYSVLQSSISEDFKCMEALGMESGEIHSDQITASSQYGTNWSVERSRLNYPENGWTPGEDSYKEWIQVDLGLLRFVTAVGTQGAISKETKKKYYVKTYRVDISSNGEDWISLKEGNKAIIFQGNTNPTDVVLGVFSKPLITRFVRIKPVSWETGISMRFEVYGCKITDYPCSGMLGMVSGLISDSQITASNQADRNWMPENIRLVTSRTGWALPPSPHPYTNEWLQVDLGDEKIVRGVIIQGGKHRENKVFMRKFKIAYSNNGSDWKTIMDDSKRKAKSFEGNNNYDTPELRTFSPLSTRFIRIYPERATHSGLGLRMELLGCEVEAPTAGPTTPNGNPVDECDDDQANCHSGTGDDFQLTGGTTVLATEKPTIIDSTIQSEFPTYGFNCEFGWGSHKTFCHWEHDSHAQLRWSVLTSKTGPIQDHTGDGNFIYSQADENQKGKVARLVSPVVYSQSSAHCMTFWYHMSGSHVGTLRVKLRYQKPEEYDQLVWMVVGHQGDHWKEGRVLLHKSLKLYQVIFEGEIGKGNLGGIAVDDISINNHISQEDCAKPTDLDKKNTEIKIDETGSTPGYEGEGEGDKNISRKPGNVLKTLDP
T4 sequence (A0A2K5V5E7 entry or part of it): as the sequence (O14786 22-856 V179A limits assumed) above, with H77R, F78L, R79W, P96Q, L258V, V341I, M396L, I460V, L578P counted along it

B1: Antibody of the invention (clone I), humanized anti-Nrp1A antibody (antibody, human IgG1, kappa, L234A L235A, V domains shown)
VH: EVQLLESGGGLVKPGGSLRLSCAASGFTFSSYAMSWVRQAPGKGLEWVSSISRTGYTYYAESVKGRFTISRDESKQTLYLQMQSLKTEDTAVYYCARVGTAFDYWGQGTLVTVSS
VL: not shown
notes: also called exemplary antibody of the invention; lead compound
Broadly, the Kd is the free concentration of one partner at which half of the binding sites on the other are occupied at equilibrium, for simple one-to-one binding. Read a low Kd as a tighter complex. In the case of B1, the Kd in experiment [1] is 11.1 nM; in the experiment with rat Nrp1, 10.5 nM; in the experiment with cyno Nrp1, 15.2 nM; in experiment [3], 11.1 nM; with gerbil Nrp1, 13.9 nM; with mouse Nrp1, 7.7 nM. Further, the “VEGF induced cell integrity loss IC50” value in experiment [2] came to 0.74 nM. The “Collapse assay IC50” value in experiment [4] stood at 0.098 nM.

B2: YW64.3, comparative antibody directed against Nrp1A (antibody, human IgG1, kappa, L234A L235A, V domains shown)
VH: EVQLVESGGGLVQPGGSLRLSCAASGFSFSSEPISWVRQAPGKGLEWVSSITGKNGYTYYADSVKGRFTISADTSKNTAYLQMNSLRAEDTAVYYCARWGKKVYGMDVWGQGTLVTVSS
VL: DIQMTQSPSSLSASVGDRVTITCRASQSISSYLAWYQQKPGKAPKLLIYGASSRASGVPSRFSGSGSGTDFTLTISSLQPEDFATYYCQQYMSVPITFGQGTKVEIKR
notes: Made for comparison after WO2007056470; also called anti-Nrp1A (YW64.3); Clone YW64.3
As to B2, in experiment [1], the Kd stood at 11.3 nM. In addition, the “VEGF induced cell integrity loss IC50” value in experiment [2] was determined as 12.6 nM. In experiment [4], the “Collapse assay IC50” value amounted to 0.056 nM.

B3: YW107.4.87, comparative antibody directed against Nrp1B (antibody, human IgG1, kappa, V domains shown)
VH: EVQLVESGGGLVQPGGSLRLSCAASGFTFSSYAMSWVRQAPGKGLEWVSQISPAGGYTNYADSVKGRFTISADTSKNTAYLQMNSLRAEDTAVYYCARGELPYYRMSKVMDVWGQGTLVTVSS
VL: B2 VL with S28Y, I29F, M92L, S93G, V94S, I96P
notes: Made for comparison after WO2007056470; also called anti-Nrp1B (YW107.4.87)
With B3, binding in experiment [1] was characterised by a dissociation constant (Kd) of 37.5 nM. Further, the “VEGF induced cell integrity loss IC50” value in experiment [2] came out at 13.7 nM.
